Data taken from patent US8383806B2, “Method of reversing carboplatin resistance by inhibition of HGFIN” (University of Medicine and Dentistry of New Jersey, priority 2000, dated 2013).

Columns and labels:
[1] = tested on: cancer stem cells from breast cancer cell lines; assay: Drug exposure of breast cancer stem cell clones; assay type: cell-based; conditions: selected clones
Procedure: Breast cancer cells are cultured in the presence of each or combinations of the anti-cancer agents 5-FU, Methothrexate, and Cytarabine. […] Cells are passaged at least 5 times in high concentrations of anti-cancer drugs. […] Breast cancer cells were subjected to rounds of exposure to 5-fluorouracil (5-FU), methotrexate, and cytarabine.

HGFIN = target: T1, HGFIN (Homo sapiens, UniProt Q14956); assay: SELDI ProteinChip (PS1) HGFIN-SP interaction; assay type: binding; conditions: HGFIN covalently bound to PS1 chip, SP added
T1 construct: made in house
T1 sequence (Q14956 23-560 isoform Q14956-2): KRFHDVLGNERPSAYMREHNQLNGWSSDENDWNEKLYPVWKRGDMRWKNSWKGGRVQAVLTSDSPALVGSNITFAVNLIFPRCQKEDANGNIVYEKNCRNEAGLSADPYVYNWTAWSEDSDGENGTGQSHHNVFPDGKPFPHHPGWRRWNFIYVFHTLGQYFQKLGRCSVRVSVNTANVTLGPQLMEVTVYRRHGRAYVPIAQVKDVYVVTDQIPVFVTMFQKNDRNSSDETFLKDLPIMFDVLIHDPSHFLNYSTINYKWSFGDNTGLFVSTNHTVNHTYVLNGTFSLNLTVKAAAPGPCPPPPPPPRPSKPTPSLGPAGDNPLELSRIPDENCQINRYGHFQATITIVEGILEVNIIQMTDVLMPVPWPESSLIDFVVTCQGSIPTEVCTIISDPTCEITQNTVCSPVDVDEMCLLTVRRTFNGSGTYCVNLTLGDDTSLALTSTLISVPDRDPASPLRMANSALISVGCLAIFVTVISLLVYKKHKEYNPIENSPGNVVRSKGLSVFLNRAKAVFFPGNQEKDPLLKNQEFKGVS
Procedure: Before studying the interaction between SP and HGFIN, each protein was profiled by the Surface Enhanced Laser Desorption/Ionization (SELDI) ProteinChip Array technology (Ciphergen Biosystems Inc., Fremont, Calif.). Normal phase (NP1) arrays were used for profiling and preactivated surface arrays (PS1) for HGFIN-SP interaction. For profiling studies, 2 μg of purified HGFIN or 2 μg of SP were spotted directly onto the NP1 arrays. Prior to adding of the proteins, chips were pre-wet with PBS. Arrays were incubated at room temperature until the protein was absorbed, which took approximately 5 to 10 minutes. […] Chips were immediately analyzed using linear, time-lag focusing laser desorption/ionization SELDI-time-of-flight mass spectrometer (Model PBS II). Accurate mass was determined by collecting approximately 150 averaged laser shots. […]
HGFIN-SP interaction was studied by pre-treating the PS1 chips with 50% acetonitrile for 3 minutes. […] CHCA was applied and the non-covalently bound SP was detected with the SELDI-Time of Flight Mass spectrometer as described for the profiling studies for HGFIN.
Protein-protein interactions were performed with the PS1 protein chip since this chip was determined to covalently bind HGFIN. SP was added to the chip and then detected with the SELDI system.

[2] = target: T2, Fibronectin-Fragment III-C (FN-IIIC) (Homo sapiens, UniProt P02751); assay: SELDI ProteinChip (PS1) positive control, FN-IIIC and SP; assay type: binding; conditions: FN-IIIC covalently coated
T2 construct: 20 ng fibronectin, fragment III-C (positive control); purchased Sigma (St Louis, Mo.)
Procedure: HGFIN-SP interaction was studied by pre-treating the PS1 chips with 50% acetonitrile for 3 minutes. After this, the chips were incubated for 45 minutes with the following: 2.5 μg HGFIN (experimental sample), anti-Id2, an unrelated IgG regarding its ability to complex with SP and was therefore treated as a negative control, rabbit anti-SP (positive control) or 20 ng fibronectin, fragment III-C (positive control). The arrays were blocked for 25 minutes with 1 M ethanolamine and washed with PBS+0.5% TRITON-X (2×) and a final PBS wash step. After this the chips were washed with PBS+TRITON-X, PBS, rinsed with 5 mM HEPES and then dried. CHCA was applied and the non-covalently bound SP was detected with the SELDI-Time of Flight Mass spectrometer as described for the profiling studies for HGFIN.
Fibronectin has been reported to bind SP. Therefore, this property of fibronectin was used as a positive control for SP interaction on the SELDI system. […] Similar results were shown with another positive control: rabbit anti-SP (covalently bound) and SP. No peak was detected in two negative controls, which consisted of bovine serum albumin or an unrelated antibody (anti-Id2) covalently bound to the surface of PS1.

T2 sequence (P02751 627-702 limits assumed): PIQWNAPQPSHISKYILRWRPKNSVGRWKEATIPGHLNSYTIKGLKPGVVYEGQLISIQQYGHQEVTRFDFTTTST

Row | Molecule | response of cancer stem cells to the drug [1] | non-covalently bound SP detected on HGFIN-coated PS1 chip (SELDI) (HGFIN) | SP detected on FN-IIIC-coated PS1 chip (SELDI) [2]
1 | O=c1[nH]cc(F)c(=O)[nH]1 [5-FU, 5-fluorouracil] | resistant |  | 
2 | Substance P [SP] |  | single peak at ˜13000 Da | single peak at ˜13000 Da
